# Experimental data as given in patent US20260242478A1 (published 2026).
# B1: Phage-1244 (peptide)
# peptide: YCDGHELMYMEKCL
# B2: Phage-1245 (peptide)
# peptide: YCAGHLEMYMSKCL
# B3: Phage-1246 (peptide)
# peptide: YCDGHIKEYMSKCL
# B4: Phage-1288 (peptide)
# peptide: YCEGHMSEYMRKCL
# B5: Phage-1287 (peptide)
# peptide: YCQGHAPWYMVKCL
# B6: Phage-1294 (peptide)
# peptide: YCDGHMDAYMSKCL
# B7: Phage-1293 (peptide)
# peptide: YCEGHAAVYMHKCL
# B8: Phage-1289 (peptide)
# peptide: YCVGHLPLYMPNCL
# B9: Phage-1292 (peptide)
# peptide: YCDGHYGAYILKCL
# B10: Phage-1290 (peptide)
# peptide: YCDGHEPQYMTKCL
# B11: Phage-1291 (peptide)
# peptide: YCEGHLPQYLAKCY
# B12: Phage-1271 (peptide)
# peptide: YCAGHTQEYMLKCL
# notes: also called Peptide-87 library clone
# B13: Phage-1261 (peptide)
# peptide: YCAGHAAIYMAKCL
# notes: as for B12
# B14: Phage-1260 (peptide)
# peptide: YCAGHSLQYLGKCY
# notes: as for B12
# B15: Phage-1267 (peptide)
# peptide: YCEGHAREYMDKCL
# notes: as for B12
# B16: Phage-1264 (peptide)
# peptide: YCDGHDPQYIRKCI
# notes: as for B12
# B17: Phage-1266 (peptide)
# peptide: YCDGHSGEYMSKCL
# notes: as for B12
# B18: Phage-1272 (peptide)
# peptide: YCQGHSVQYMAKCL
# notes: as for B12
# B19: Phage-1265 (peptide)
# peptide: YCEGHLPMYMQKCM
# notes: as for B12
# B20: Phage-1269 (peptide)
# peptide: YCDGHSPQYLWKCL
# notes: as for B12
# B21: Phage-1270 (peptide)
# peptide: YCAGHSAEYIQKCL
# notes: as for B12
# B22: Phage-1268 (peptide)
# peptide: YCDGHSMEYMAKCL
# notes: as for B12
# B23: Phage-1263 (peptide)
# peptide: YCDGHKWEYLQKCL
# notes: as for B12
# B24: Phage-1262 (peptide)
# peptide: YCDGHSMTYMAKCI
# notes: as for B12
# B25: Phage-1253 (peptide)
# peptide: YCDGHSTLYMQKCL
# notes: Tested as clonal phage supernatant
# B26: Phage-1255 (peptide)
# peptide: YCEGHISEYMGKCL
# notes: as for B25
# B27: Phage-1256 (peptide)
# peptide: YCDGHFTWYMAKCL
# notes: as for B25
# B28: Phage-1254 (peptide)
# peptide: YCDGHTEAYMSKCL
# notes: as for B25
# B29: Phage-1252 (peptide)
# peptide: YCEGHLAAYMYKCL
# notes: as for B25
# B30: Phage-1251 (peptide)
# peptide: YCEGHSSAYMAKCL
# notes: as for B25
# B31: Phage-1257 (peptide)
# peptide: YCDGHIAEYRSKCL
# notes: as for B25
# B32: Phage-1249 (peptide)
# peptide: YCEGHSQEYKAKCF
# notes: as for B25
# B33: Phage-1259 (peptide)
# peptide: YCDGHTAQYMWKCL
# notes: as for B25
# B34: Phage-1248 (peptide)
# peptide: YCEGHDWMYMEKCL
# notes: as for B25
# B35: Phage-1250 (peptide)
# peptide: YCDGHVLMYLAKCL
# notes: as for B25
# B36: Phage-1247 (peptide)
# peptide: YCDGHLLMYMEKCL
# notes: as for B25
# B37: Phage-1258 (peptide)
# peptide: YCEGHLSEYIGKCL
# notes: as for B25
# Target: T1, Anti-CD28 Fab (SEQ ID NOs: 696, 697)
# T1 construct: Biotinylated and captured on neutravidin coated plates in the phage ELISA
# Experiment: phage ELISA; Fab-coated wells first incubated with CD28 antigen (competitor), then clonal phage, anti-M13 HRP
# T1 sequence (VH, as listed by the source, chain 1 of 2): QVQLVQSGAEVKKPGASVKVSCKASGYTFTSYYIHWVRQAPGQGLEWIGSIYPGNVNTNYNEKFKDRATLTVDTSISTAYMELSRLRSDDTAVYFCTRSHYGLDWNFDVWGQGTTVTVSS
# T1 sequence (VL, as listed by the source, chain 2 of 2): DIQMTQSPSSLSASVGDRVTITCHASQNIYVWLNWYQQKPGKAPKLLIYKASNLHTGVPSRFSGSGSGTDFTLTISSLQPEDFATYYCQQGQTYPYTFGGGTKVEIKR
# Procedure: (§1) After panning, phage infected bacteria were plated out and colonies picked into 96 well blocks. Clonal phage was then amplified and separated from bacterial cells via centrifugation.
# (§2) Clonal phage were harvested as crude supematants and screened via standard ELISAs. […] Prior to the addition of clonal phage, wells were incubated with blocking buffer and CD28 antigen or blocking buffer alone. Without washing or aspirating, clonal phage supematants were then added to the wells and incubated for a short time. Wells were then washed followed by detection of bound phage using a horse radish conjugated anti-M13 antibody. Clonal phage of interest were then sent for sequence analysis.
row,Binder,Anti-CD28 Fab signal in the presence of CD28 (phage binding ELISA)
1,B1,0.06
2,B2,0.07
3,B3,0.08

# Target: T2, Anti-CD28 Fab (SEQ ID NOs: 696, 697)
# T2 construct: In the phage ELISA the Fab was biotinylated and captured on neutravidin coated plates
# Experiment: phage ELISA; Fab-coated wells pre-incubated with CD28 antigen as competitor, clonal phage supernatant, anti-M13 HRP detection
# T2 sequence (VH, as listed by the source, chain 1 of 2): as the sequence (VH, as listed by the source, chain 1 of 2) above
# T2 sequence (VL, as listed by the source, chain 2 of 2): as the sequence (VL, as listed by the source, chain 2 of 2) above
# Procedure: as §1, §2
row,Binder,"Phage binding ELISA, Anti-CD28 Fab signal in the presence of CD28"
1,B4,0.1
2,B5,0.08
3,B6,0.06
4,B7,0.09
5,B8,0.11
6,B9,0.06
7,B10,0.1
8,B11,0.08

# Target: T1, Anti-CD28 Fab (SEQ ID NOs: 696, 697)
# Experiment: phage ELISA; biotinylated anti-CD28 Fab on neutravidin plate, clonal phage supernatant, anti-M13 HRP
# Procedure: as §1, §2
row,Binder,Anti-CD28 Fab signal (phage binding ELISA)
1,B1,0.92
2,B2,0.91
3,B3,0.91

# Target: Anti-CD28 Fab (SEQ ID NOs: 696, 697)
# Experiment: phage ELISA; biotinylated anti-CD28 Fab on neutravidin plate, clonal phage supernatant, anti-M13 HRP detection;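 further: crude supernatants of single phage clones picked after panning were screened for binding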
# Target sequence in this assay (VH, as listed by the source, chain 1 of 2): as the sequence (VH, as listed by the source, chain 1 of 2) above
# Target sequence in this assay (VL, as listed by the source, chain 2 of 2): as the sequence (VL, as listed by the source, chain 2 of 2) above
# Procedure: as §1, §2
row,Binder,"Phage binding ELISA, Anti-CD28 Fab signal"
1,B12,0.78
2,B13,0.85
3,B14,0.86
4,B15,0.8
5,B16,0.83
6,B17,0.82
7,B18,0.77
8,B19,0.82
9,B20,0.8
10,B21,0.8
11,B22,0.8
12,B23,0.84
13,B24,0.84

# Target: T2, Anti-CD28 Fab (SEQ ID NOs: 696, 697)
# Experiment: as above
# Procedure: as §1, §2
row,Binder,"Phage binding ELISA, Anti-CD28 Fab signal"
1,B4,0.69
2,B5,0.69
3,B6,0.65
4,B7,0.67
5,B8,0.68
6,B9,0.67
7,B10,0.68
8,B11,0.67

# Target: Anti-CD28 Fab (SEQ ID NOs: 696, 697)
# Experiment: phage binding ELISA; captured Fab pre-incubated with CD28 antigen as competitor, anti-M13 HRP
# Target sequence in this assay (VH, as listed by the source, chain 1 of 2): as the sequence (VH, as listed by the source, chain 1 of 2) above
# Target sequence in this assay (VL, as listed by the source, chain 2 of 2): as the sequence (VL, as listed by the source, chain 2 of 2) above
# Procedure: as §1, §2
row,Binder,Anti-CD28 Fab signal in the presence of CD28
1,B25,0.06
2,B26,0.05
3,B27,0.08
4,B28,0.06
5,B29,0.07
6,B30,0.07
7,B31,0.07
8,B32,0.07
9,B33,0.07
10,B34,0.07
11,B35,0.09
12,B36,0.06
13,B37,0.06

# Target: Anti-CD28 Fab (SEQ ID NOs: 696, 697)
# Experiment: phage binding ELISA; biotinylated Fab on neutravidin plate, clonal phage supernatant, anti-M13 HRP;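 further: clones picked after panning, added to wells pre-incubated with CD28 antigen or with blocking buffer only, no wash before phage addition, bound phage read after washing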
# Target sequence in this assay (VH, as listed by the source, chain 1 of 2): as the sequence (VH, as listed by the source, chain 1 of 2) above
# Target sequence in this assay (VL, as listed by the source, chain 2 of 2): as the sequence (VL, as listed by the source, chain 2 of 2) above
# Procedure: as §1, §2
row,Binder,"Anti-CD28 Fab (SEQ ID NOs: 696, 697) signal"
1,B25,0.88
2,B26,0.88
3,B27,0.87
4,B28,0.88
5,B29,0.89
6,B30,0.9
7,B31,0.87
8,B32,0.9
9,B33,0.87
10,B34,0.91
11,B35,0.9
12,B36,0.91
13,B37,0.87

# Target: Anti-CD28 Fab (SEQ ID NOs: 696, 697)
# Experiment: phage ELISA; Fab on plate pre-incubated with CD28 antigen (competitor), clonal phage supernatant, anti-M13 HRP detection
# Target sequence in this assay (VH, as listed by the source, chain 1 of 2): as the sequence (VH, as listed by the source, chain 1 of 2) above
# Target sequence in this assay (VL, as listed by the source, chain 2 of 2): as the sequence (VL, as listed by the source, chain 2 of 2) above
# Procedure: as §1, §2
row,Binder,"Phage binding ELISA, Anti-CD28 Fab signal in the presence of CD28"
1,B12,0.06
2,B13,0.07
3,B14,0.06
4,B15,0.07
5,B16,0.06
6,B17,0.06
7,B18,0.06
8,B19,0.07
9,B20,0.05
10,B21,0.08
11,B22,0.07
12,B23,0.06
13,B24,0.06
